From patent US20100048482A1, “COMPOSITIONS AND METHODS FOR MODULATING EPSILON PROTEIN KINASE C-MEDIATED CYTOPROTECTION” (Board of Trustees of the Leland Stanford Junior University, priority 2008, published 2010)
Entries after “also recorded” stand apart in the source; their conditions may differ. Ends that are not written are not given here.

Assays:
[1] = tested on: Langendorff perfused rat heart; assay: Ex vivo Langendorff perfused rat heart ischemia-reperfusion, creatine phosphokinase (CPK) release; details: 1 μM TAT-conjugated peptide; for effect on IR-induced CPK release / IR injury: ex vivo IR
Description: In accordance with a well-established ex vivo rat heart model for ischemia-reperfusion (see, e.g., U.S. Publication Nos. 20080167247, 20080153926, 20070299012, and 20060293237, which are herein incorporated by reference) and the method described in Example 1, hearts were removed from animals (rats) and subjected to a normoxia or an IR protocol, both depicted in FIG. 1A. The normoxia regimen comprised exposing hearts to 70 minutes of a normal oxygen state. The IR (ischemia/reperfusion) regimens comprised subjecting hearts to 20 minutes of normoxia, followed by 35 minutes of ischemia, followed by 15 minutes of reperfusion. […] The amount of necrotic cell death was then determined by measuring the release of creatine phosphokinase (CPK) into the buffer perfusate during reperfusion, which served as an indicator of ischemic damage.
(§1) Rat hearts (Wistar, 250-300 g) were excised and cannulated on a Langendorff apparatus via the aorta. Briefly, retrograde perfusion was carried out with a constant coronary flow rate of 10 ml/min with oxygenated Krebs-Henseleit buffer containing 120 mM NaCl, 5,8 mM KCl, 25 mM NaHCO3, […], 1.2 mM MgSO4, 1.2 mM CaCl2, and 10 mM dextrose, pH 7.4 at 37° C. After a 20 min equilibration period, hearts were subjected to a 35 min of no-flow, global ischemia followed by 15 min of reperfusion. Control hearts were perfused with normoxic Krebs buffer and were time-matched for the experimental period. […] At the end of the 15 mins reperfusion period, hearts were rapidly transferred to ice-cold homogenization buffer and subcellular fractions separated by differential centrifugation as described below.
Necrotic damage was determined by measurement of the release of the cardiac myocyte cytosolic enzyme, creatine phosphokinase (CPK), into the effluent (FIG. 1B). The levels are expressed in arbitrary CPK units.
Isolated rat hearts were perfused with oxygenated Krebs-Henseleit solution comprised of NaCl ([…]); KCl ([…]); NaHCO3 ([…]); NaH2O4 ([…]); MgSO4 (1.2 nmol/L); CaCl2 (1.0 nmol/L); and dextrose (10 nmol/L), pH 7.4 at 37 C. After a 10 minute equilibration period, the hearts were treated with the ψεHSP90 peptide or control buffer solution. As depicted in FIG. 5A, Perfusion was maintained at a constant flow of 10 mL/min with Krebs-Henseleit solution containing 1 μM of the appropriate peptide. The Langendorff method employs retrograde flow […] and into the coronary arteries, bypassing the pulmonary arteries. To induce global ischemia, flow was interrupted for 35 minutes. After the ischemic event, the hearts were reperfused with Krebs-Henseleit solution for 15 minutes.
During reperfusion, ischemia-induced cell damage was determined by measuring the activity of creatine phosphokinase (CPK) in the coronary perfusate, carried out using a standard assay kit (Equal Diagnostics, CT, USA). The ψεHSP90 peptide was perfused in Langendorf mode for 10 minutes before and 10 minutes after the ischemic period (1 micromolar) and myocardial injury was assayed by the release of CPK into the effluent during reperfusion (FIG. 5B). Similar to the previous results, hearts that were subjected to IR had high levels of CPK in the effluent; however, perfusion with ψεHSP90 peptide decreased CPK release by 47% (n4; p<0.05; FIG. 5B). Translocation of εPKC and the related isoform δPKC to the mitochondria and plasma membrane was determined by western blotting using εPKC and δPKC antibodies (Santa Cruz Biotechnology) (FIG. 5C). […] Physical interaction between PKCε and HSP90 was determined by co-immunoprecipitation of PKCε and HSP90 in the mitochondrial fraction in hearts exposed to normoxia or IR in the absence or presence of 1 μM ψεHSP90 (FIG. 5D).

[2] = molecular target: T1, recombinant human εPKC (Homo sapiens, UniProt Q02156); assay: In vitro mitochondrial translocation assay, recombinant GST-εPKC with isolated rat cardiac mitochondria; format: biochemical; details: for mitochondrial translocation of εPKC in the absence of phospholipids (PS/DAG): 1 μM ψεHSP90, hydrogen peroxide present, no PS/DAG, FIG. 6B lane 5
T1 construct: purchased Cell Signaling Technology
T1 sequence (Q02156 1-737): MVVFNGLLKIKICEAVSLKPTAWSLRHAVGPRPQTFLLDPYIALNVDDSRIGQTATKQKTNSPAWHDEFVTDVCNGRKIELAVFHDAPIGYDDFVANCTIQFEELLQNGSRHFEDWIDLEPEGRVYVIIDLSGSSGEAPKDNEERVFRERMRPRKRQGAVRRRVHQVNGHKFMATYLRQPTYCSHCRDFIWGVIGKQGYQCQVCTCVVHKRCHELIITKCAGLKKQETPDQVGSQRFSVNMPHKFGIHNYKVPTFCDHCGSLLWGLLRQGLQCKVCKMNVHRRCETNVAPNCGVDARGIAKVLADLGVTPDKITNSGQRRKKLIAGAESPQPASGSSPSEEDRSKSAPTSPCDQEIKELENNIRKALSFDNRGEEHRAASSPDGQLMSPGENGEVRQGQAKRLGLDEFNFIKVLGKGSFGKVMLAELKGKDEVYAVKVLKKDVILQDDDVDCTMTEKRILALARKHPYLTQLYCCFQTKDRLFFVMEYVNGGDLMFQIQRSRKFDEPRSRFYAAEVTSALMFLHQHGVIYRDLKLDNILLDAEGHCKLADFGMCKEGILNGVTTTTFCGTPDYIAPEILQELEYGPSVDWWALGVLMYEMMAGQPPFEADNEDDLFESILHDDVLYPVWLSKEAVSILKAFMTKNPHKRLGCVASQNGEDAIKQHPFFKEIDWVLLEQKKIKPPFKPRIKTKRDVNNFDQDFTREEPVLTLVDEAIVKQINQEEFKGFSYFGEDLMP
Description: An in vitro approach was used to identify cellular components that were important for εPKC translocation to the mitochondria. As described in Example 5, mitochondria were isolated from normoxic hearts and incubated for 20 minutes at 37° C. with purified recombinant GST-tagged εPKC (Cell Signaling Technology Inc,), which was pretreated by different combinations of PKC activation components including phospholipids and hydrogen peroxide (H2O2) in the absence (FIG. 6A) and presence (FIG. 6B) of the ψεHSP90 peptide. Following incubation of PKCε with its activation components, mitochondria were introduced into the εPKC mixture and incubated for an additional 20 minutes, after which the mitochondria were pelleted by centrifugation and then probed with antibodies selective for PKCε and the mitochondrial marker VDAC The use of GST-tagged εPKC allowed the distinction, based on size, between exogenous GST-εPKC and native/endogenous εPKC present in the mitochondria prior to treatment. Rabbit reticulocyte lysate (RRL) was used as an exogenous source of HSP90 as described previously (Scherrer et al., Biochemistry. 1992. 31:7325-7329)
Activation of recombinant εPKC was performed as described in the art. Briefly, recombinant εPKC (5 μl of 10 ng/μl stock) (Cell Signaling Technology) was aliquoted into assay buffer (20 mM Tris HCl, 50 mM KCl, 1 mM DTT, 0.1 mg/ml BSA Mg^2+ (5 mM), ATP (100 μM), pH 7.4) containing different combinations of activation factors including phosphatidylserine/diacylglycerol (1 mM), H2O2 (50 μM) or ψεHSP90 (1 μm) in a final volume of 50 μl . εPKC was activated by incubation in assay buffer at 37° C. for 20 min. Rabbit reticulocyte lysate (RRL) (10 μl) was added to the incubation mixture for 10 minutes after εPKC activation. […] Mitochondria were then spun at 10,000 g×10 min, resuspended in 50 μl sample loading buffer and mitochondrial εPKC levels measured by western blotting using VDAC as a loading control. […]

[3] = molecular target: T2, PKCε (Rattus norvegicus, UniProt P09216); assay: PKCε translocation to plasma membrane fraction after IR (western blot); details: 1 μM ψεHSP90
T2 construct: Rat heart ventricles were removed from the cannula and homogenized; from tissue; host or cells: Wistar rat heart ventricle; mitochondrial, IMM or plasma membrane fractions
T2 sequence (P09216 1-737): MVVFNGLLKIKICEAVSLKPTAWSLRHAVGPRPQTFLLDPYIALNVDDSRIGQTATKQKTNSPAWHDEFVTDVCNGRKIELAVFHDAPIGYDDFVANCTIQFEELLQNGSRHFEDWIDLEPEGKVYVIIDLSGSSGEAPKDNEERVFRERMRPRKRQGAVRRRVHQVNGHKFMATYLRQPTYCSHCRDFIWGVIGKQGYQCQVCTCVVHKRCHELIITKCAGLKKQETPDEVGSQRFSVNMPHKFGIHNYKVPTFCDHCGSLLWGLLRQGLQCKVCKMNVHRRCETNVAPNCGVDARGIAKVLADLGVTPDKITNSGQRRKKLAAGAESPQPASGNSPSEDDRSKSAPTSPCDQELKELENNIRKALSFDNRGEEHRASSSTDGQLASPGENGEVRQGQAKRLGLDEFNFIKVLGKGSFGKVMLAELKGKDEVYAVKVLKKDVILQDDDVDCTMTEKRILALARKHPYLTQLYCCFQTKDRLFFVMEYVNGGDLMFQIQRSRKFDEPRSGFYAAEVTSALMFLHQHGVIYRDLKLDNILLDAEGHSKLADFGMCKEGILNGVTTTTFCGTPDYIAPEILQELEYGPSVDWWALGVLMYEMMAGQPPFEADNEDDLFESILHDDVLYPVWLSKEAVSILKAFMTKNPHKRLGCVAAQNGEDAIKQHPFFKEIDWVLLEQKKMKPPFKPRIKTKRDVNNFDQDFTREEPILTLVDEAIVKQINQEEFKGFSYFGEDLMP
Description: (§2) Rat heart ventricles were removed from the cannula and homogenized in ice-cold mannitol-sucrose buffer (210 mM mannitol, 70 mM sucrose, 5 mM MOPS and 1 mM EDTA containing Sigma Protease Inhibitor 1 and Sigma Phosphatase Inhibitors 1 and 2, added per manufacturer's instructions) The resultant homogenate was filtered through gauze and centrifuged at 700 g for 5 minutes to pellet nuclei and cellular debris. The supernatant was centrifuged at 10,000 g to pellet the mitochondrial-enriched fraction and the supernatant from this fraction centrifuged at 100,000 g to pellet the plasma membrane fraction. […] Mitochondrial purity was also assessed by electron microscopic analysis. Protein concentration was determined by Bradford assay and 10 μg protein separated on a 12% SDS-PAGE gel and transferred to nitrocellulose. PKC translocation was measured using antibodies raised against εPKC and δPKC with mitochondrial (ANT) and cytosolic (GAPDH) markers used to ensure equal sample loading of the mitochondrial and cytosolic fractions, respectively. Densitometry was performed using Image J software (NIH).
During reperfusion, ischemia-induced cell damage was determined by measuring the activity of creatine phosphokinase (CPK) in the coronary perfusate, carried out using a standard assay kit (Equal Diagnostics, CT, USA). […]

[4] = molecular target: T3, εPKC (Rattus norvegicus, UniProt P09216); assay: IR-induced mitochondrial translocation of εPKC (western blot of heart mitochondrial fraction)
T3 construct: Rat heart ventricles were removed from the cannula and homogenized; from tissue; host or cells: Wistar rat heart ventricle; mitochondrial, IMM or plasma membrane fractions
T3 sequence (P09216 1-737): T2 sequence (P09216 1-737)
Description: as §1
as §2, with “debris.” for “debris. The supernatant was centrifuged at 10,000 g to pellet the mitochondrial-enriched fraction and the supernatant from this fraction centrifuged at 100,000 g to pellet the plasma membrane fraction.”, “Densitometry was performed using Image J software (NIH).” left out
During reperfusion, ischemia-induced cell damage was determined by measuring the activity of creatine phosphokinase (CPK) in the coronary perfusate, carried out using a standard assay kit (Equal Diagnostics, CT, USA). […] Translocation of εPKC and the related isoform δPKC to the mitochondria and plasma membrane was determined by western blotting using εPKC and δPKC antibodies (Santa Cruz Biotechnology) (FIG. 5C). […]

[5] = tested on: δPKC; assay: IR-induced mitochondrial translocation of δPKC (western blot of heart mitochondrial fraction); set-up: species or system rat; details: 1 μM ψεHSP90
[6] = molecular target: T4, εPKC and HSP90 (Rattus norvegicus, UniProt P09216); assay: Co-immunoprecipitation of εPKC and HSP90 in heart mitochondrial fraction after IR
T4 construct: 200-500 μg of mitochondrial or cytosolic protein was diluted into 1 ml of IP Lysis Buffer; from tissue; host or cells: Wistar rat heart; mitochondrial (and cytosolic) fraction
T4 sequence (P09216 1-737): T2 sequence (P09216 1-737)
Description: Since εPKC and HSP90 are predominately cytosolic proteins, it was expected to observe co-immunoprecipitation of εPKC and HSP90 in the cytosolic fraction following exposure to IR.
200-500 μg of mitochondrial or cytosolic protein was diluted into 1 ml of IP Lysis Buffer (150 mM NaCl, 10 mM Tris-HCl, 5 mM EDTA, 0.1% Triton X-100, pH=7.4, containing Sigma Protease Inhibitor 1 and Sigma Phosphatase Inhibitors 1 and 2). Proteins were incubated with εPKC antibody (2 μg) for 2 hours at 4° C. with inversion mixing. 10 μg of Protein A/G Beads (Santa Cruz Biotechnology) were added and the mixture was incubated overnight at 4° C. with inversion mixing. Beads were then centrifuged, washed 3× in IP Lysis Buffer, then re-suspended in sample buffer. Immunoprecipitated proteins were separated on 10% SDS-PAGE gels. The presence of associated proteins was determined by western blotting using antibodies specific for PKCε HSP90, TOM20 and TIM23. Protein immunoprecipitation was then repeated in reverse (immunoprecipitation with HSP90, TOM20 or TIM23 antibodies followed by western blotting with εPKC antibody). […]

Substance | effect on IR-induced CPK release / IR injury [1] | effect on IR-induced CPK release / IR injury ([1]; listed as corresponding sequence from the HSP90 protein) | mitochondrial translocation of εPKC in the absence of phospholipids (PS/DAG) [2] | mitochondrial translocation of εPKC in the absence of phospholipids (PS/DAG) ([2]; listed as ψεHSP90) | effect on association/translocation of εPKC with isolated mitochondria in vitro ([2]; 1 μM ψεHSP90, FIG. 6B lanes 2-5) | reduction of IR-induced CPK release ([1]; 10 min before ischemia and first 10 min of reperfusion, versus IR alone, p<0.05) [%] | effect on PKCε translocation to the plasma membrane [3] | effect on mitochondrial translocation of PKCε after IR ([4]; 1 μM ψεHSP90) | higher mitochondrial PKCε levels versus IR group untreated with peptide ([4]; IR in the presence of 1 μm ψεHSP90 peptide) [%] | effect on PKCδ association with the mitochondria after IR [5] | effect on IR-induced physical association of PKCε and HSP90 at the mitochondria ([6]; 1 μM ψεHSP90) | increase in IR-induced physical interaction between HSP90 and PKCε (co-immunoprecipitation) ([6]; 1 μM ψεHSP90, mitochondrial fraction) [fold]
PEDEEEK (not fully specified) | no statistical effect | no effect |  |  |  |  |  |  |  |  |  | 
PKDNEER (not fully specified) [ψεHSP90 peptide] | significantly reduced |  | resulted in translocation of εPKC | sufficient to induce | increased | 47 | did not affect | enhanced | ~20 | not altered; also recorded: without effect | increased | ~4
